The target of one data set is T1, Dok1 PTB domain (Homo sapiens, UniProt Q99704).
T1 construct: Human Dok1 PTB domain (Q154 – G256; Swiss-Prot Q99704, number as Q1-G103); six His-tag (N); made in house; host or cells: Escherichia coli Rosetta
T1 sequence (Q99704 154-256): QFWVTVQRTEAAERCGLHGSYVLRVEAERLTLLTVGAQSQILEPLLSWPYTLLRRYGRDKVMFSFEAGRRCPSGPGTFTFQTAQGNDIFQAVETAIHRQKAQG
The data set is described as follows: 15N-1H HSQC NMR chemical shift titration of Dok1 PTB domain with integrin β2 tail peptides. In kind it is binding. The settings on record: Table 2; 15N-1H HSQC combined chemical shift perturbation, 0.7 mM 15N-Dok1 PTB domain, 50 mM sodium phosphate pH 6.0, 100 mM NaCl, 2 mM DTT, 20 min equilibration; depletion model fit; Kd ± S.E.; read-out: Dissociation constant Kd. Here is the method:
Human Dok1 PTB domain (Q154 – G256; Swiss-Prot Q99704, number as Q1-G103) was sub-cloned into the pET14b vector with an N-terminal six His-tag. Escherichia coli Rosetta cells were transformed with the expression plasmid and grown at 37 °C either in LB or M9 medium containing [^15N] ammonium chloride (Cambridge Isotope Laboratories). Expression of recombinant protein was induced by adding 1 mM IPTG to cells (OD600 0.6–0.7) followed by incubation for 6–12 h at 16 °C. Cells were centrifuged and re-suspended in Buffer A (20 mM Tris-HCl buffer, pH 8.0) followed by affinity purification on a Nickel-NTA column (Qiagen). […] Proteins were eluted at a flow rate of 0.5 ml/min and monitored by absorbance at λ = 276 nm.
All NMR experiments were performed on a Bruker DRX 600 MHz spectrometer equipped with an actively shielded cryoprobe. NMR data were processed using the NMRPipe and NMRDraw suite and analysed by Sparky (T.D. Goddard and D.G. Kneller, University of California, San Francisco). […] The stock solutions of the above mentioned peptides were prepared in the same buffer (100 mM NaCl, 2 mM DTT, 50 mM sodium phosphate, pH 6.0) used for the Dok1 PTB domain NMR experiments, ^15N-^1H HSQC spectra were recorded at different protein:peptide molar ratios (1:0.1, 1:0.2, 1:0.3, 1:0.5, 1:1, 1:1.5, 1:2, 1:2.5 and 1:3) for all of the above mentioned peptides except for the unphosphorylated KT15. […]

The nature of data set [1]: Solubility of β2 tail peptide as observed in NMR sample preparation. In kind it is physicochemical. Conditions: at high concentrations, NMR buffer.
Data set [2] deals with T2, Human Dok1 PTB domain (Q154-G256) (human, UniProt Q99704 154-256).
T2 construct: Docking protein 1 (Dok1; p62Dok), human, PTB domain Q154-G256 of Swiss-Prot Q99704. numbers count on: the construct, renumbered Q1-G103 (Q154 = Q1); pET14b vector; no removal of the His tag is described; Residue numbers of the PTB domain in the results (Arg54, Arg69 ...) count on Q1-G103; also called PTB domain of Dok1; source: E. coli Rosetta, purified (Nickel-NTA, gel filtration on Superdex …)
T2 sequence (looked up): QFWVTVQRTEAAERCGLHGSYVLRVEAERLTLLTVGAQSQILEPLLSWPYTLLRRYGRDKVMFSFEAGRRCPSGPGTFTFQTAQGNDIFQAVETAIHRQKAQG
The data set is described as follows: NMR titration; 15N-1H HSQC of 15N-labelled Dok1 PTB domain at 0.7 mM, unlabelled peptide added (protein:peptide 1:0.1 to 1:3; KT15 1:0.5 to 1:6); 100 mM NaCl, 2 mM DTT, 50 mM sodium phosphate, pH 6.0; Kd from combined chemical shift changes, depletion model; apparent for KT15. Conditions: both partners purified.

Data set [3] concerns Dok1-CFP / integrin β2-YFP association in K562 cells. The data set can be described thus: YFP-photobleach FRET between Dok1-CFP and integrin β2-YFP in K562 cells. The data set is classed as cell-based, human. Conditions: K562 stably expressing Dok1-CFP, transfected with integrin αL, β2-YFP and CCR5; RANTES 50 ng/ml, 10 min, 37 °C; 39 cells with, 60 without; p < 0.05. Here is the method:
K562 cells (ATCC, Manassas, VA) were cultured in RPMI1640 full-medium containing 10% (v/v) FBS and antibiotics. Cells (2 × 10^6) were transfected with integrin αL plasmid (9 μg), integrin β2-YFP plasmid (WT or mutant) (9 μg) and Dok1-CFP or CFP plasmid (12 μg) by electroporation using the Neon electroporation kit (Invitrogen) on a MP-100 pipette-type microporator (Invitrogen). YFP-photobleach FRET assay was performed essentially as described. Immunoblottings of transfected K562 lysates were performed using rabbit anti-GFP antibody (Life Technologies, Grand Island, NY), rabbit anti-Dok1 antibody (Abcam, Cambridge, MA) and HRP-conjugated goat anti-rabbit (Avansta, Menlo Park, CA) followed by ECL detection. To generate K562 cells stably expressing Dok1-CFP, cells were transfected with Dok1-CFP plasmid by electroporation followed by serial dilutions into 96-well cell culture microtitre plates to select for stable clones in the presence of antibiotic G418 (0.6 mg/ml). Clones expressing Dok1-CFP were screened by flow cytometry analyses and verified by immunoblotting with anti-GFP antibody (Life Technologies, Grand Island, NY). […] Samples were acquired and examined on a FACSCalibur flow cytometer and data analyzed using the Flowjo software (Tree Star Inc. Ashland, OR). […]

Square brackets hold non-standard residues; d marks the D form. Ends that are not written are not given here. Peptide text beside a SMILES is read from it. pS = N[C@@H](COP(=O)(O)O)C(=O)O

As to `CC(C)C[C@H](NC(=O)[C@@H]1CCCN1C(=O)[C@H](CC(N)=O)NC(=O)[C@H](CC(=O)O)NC(=O)[C@H](CC(N)=O)NC(=O)[C@H](CC(N)=O)NC(=O)[C@H](Cc1c[nH]c2ccccc12)NC(=O)[C@H](CCC(N)=O)NC(=O)[C@H](CO)NC(=O)[C@@H](N)CCCCN)C(=O)N[C@@H](Cc1ccccc1)C(=O)N[C@@H](CCCCN)C(=O)N[C@@H](CO)C(=O)N[C@@H](C)C(=O)N[C@H](C(=O)O)[C@@H](C)O` [KT15] (H-KSQWNNDNPLFKSAT-OH), the Kd at Dok1 PTB domain amounted to 16000 ± 300 µM.
The same measure, in the same setting: the same measure for `CC(C)C[C@H](NC(=O)[C@@H]1CCCN1C(=O)[C@H](CC(N)=O)NC(=O)[C@H](CC(=O)O)NC(=O)[C@H](CC(N)=O)NC(=O)[C@H](CC(N)=O)NC(=O)[C@H](Cc1c[nH]c2ccccc12)NC(=O)[C@H](CCC(N)=O)NC(=O)[C@H](CO)NC(=O)[C@@H](N)CCCCN)C(=O)N[C@@H](Cc1ccccc1)C(=O)N[C@@H](CCCCN)C(=O)N[C@@H](COP(=O)(O)O)C(=O)N[C@@H](C)C(=O)N[C@H](C(=O)O)[C@@H](C)O` [pSer756-KT15] (H-KSQWNNDNPLFK[pS]AT-OH): 189 ± 30 µM.
On to “KALIHLSDLREYRRFEKEKLKSQWNNDNPLFKSATTTVMNPKFAES [full-length unphosphorylated β2 tail, Synthetic full-length integrin β2 (CD18) cytoplasmic tail, residues 724-769]”, for which, in data set [1], the Solubility in words result was “limited solubility”.
Take KALIHLSDLREYRRFEKEKLKSQWNNDNPLFK[pS]ATTTVMNPKFAES [Full-length integrin β2 tail peptide phosphorylated at Ser756]: the Kd in data set [2] is 98 µM.

B1: KT18EE, integrin β2 tail fragment (K742-T759) with Ser745 and Ser756 substituted by Glu (peptide)
peptide: KLKEQWNNDNPLFKEATT
notes: also called Ser to Glu substituted KT18 peptide; Ser to Glu substituted β2 tail peptide; source: synthetic peptide, bought: GLBioChem, Shanghai (purity >95%)
Take B1: in data set [2], the Kd worked out at 8490 µM.

B2: RANTES: Chemokine, ligand of CCR5, used to activate cells (Calbiochem) (protein, UniProt P13501 24-91, looked up)
C-C motif chemokine 5: SPYSSDTTPCCFAYIARPLPRAHIKEYFYTSGKCSNPAVVFVTRKNRQVCANPEKKWVREYINSLEMS
With B2, in data set [3], the “FRET signal Dok1-CFP / integrin β2-YFP compared with untreated cells” value was “significantly lower”.
For the molecule KALIHLSDLREYRRFEKEKLK[pS]QWNNDNPLFKSATTTVMNPKFAES [Full-length integrin β2 tail peptide phosphorylated at Ser745], the Kd in data set [2] was determined as 215 µM.
